Measurements reported in paper PMC6778621.

Assays:
[1] = biological target: MET-ECD-Fc-His V370D (human) (UniProt P08581); assay: SPR
[2] = biological target: MET-ECD-Fc-His (WT) (human) (UniProt P08581); assay: SPR

Substance: SP domain of HGF (β-chain) (domain or fragment)
- Kd [1]: 914 nM
- Kd [2]: 858 nM
